Measured values as given in patent publication US6887705B1, “Tyrosine phosphorylated cleavage furrow-associated proteins (PSTPIPs)” (Genentech, Inc., priority 1997, dated 2005).
“Also recorded” adds a separate entry of the source.

T1: PTP HSCF (Mus musculus, UniProt Q61152)
T1 construct: the PST (and C-terminal homolog) of PTP HSCF (amino acids 304-453); made in house; host or cells: E. coli DH5-alpha
T1 sequence (Q61152 304-453): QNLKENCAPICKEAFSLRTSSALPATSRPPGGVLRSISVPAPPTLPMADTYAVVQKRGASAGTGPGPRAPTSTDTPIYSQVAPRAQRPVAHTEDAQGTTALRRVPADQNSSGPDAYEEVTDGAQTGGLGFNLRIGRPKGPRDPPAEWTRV

B1: W232A mutant of PST PIP, C-terminal FLAG (other)
chain: MMAQLQFRDAFWCRDFTAHTGYEVLLQRLLDGRKMCKDVEELLRQRAQAEERYGKELVQIARKAGGQTEMNSLRTSFDSLKQQTENVGSAHIQLALALREELRSLEEFRERQKEQRKKYEAIMDRVQKSKLSLYKKTMESKKAYDQKCRDADDAEQAFERVSANGHQKQVEKSQNKAKQCKESATEAERVYRQNIEQLERARTEWEQEHRTTCEAFQLQEFDRLTILRNALAVHCNQLSMQCVKDDELYEEVRLTLEGCDVEGDINGFIQSKSTGREPPAPVPYQNYYDREVTPLIGSPSIQPSCGVIKRFSGLLHGSPKTTPSAPAASTETLTPTPERNELVYASIEVQATQGNLNSSAQDYRALYDYTAQNSDELDISAGDILAVILEGEDGWWTVERNGQRGFVPGSYLEKLDYKDDDDK
notes: In vitro translated or expressed in COS cells; also called W232A PST PIP; PST PIP with an alanine replacement mutation at tryptophan232
B2: PSTPIP: murine PST Phosphatase Interacting Protein, 415 residues (SEQ ID NO:1) (protein)
chain: MMAQLQFRDAFWCRDFTAHTGYEVLLQRLLDGRKMCKDVEELLRQRAQAEERYGKELVQIARKAGGQTEMNSLRTSFDSLKQQTENVGSAHIQLALALREELRSLEEFRERQKEQRKKYEAIMDRVQKSKLSLYKKTMESKKAYDQKCRDADDAEQAFERVSANGHQKQVEKSQNKAKQCKESATEAERVYRQNIEQLERARTEWEQEHRTTCEAFQLQEFDRLTILRNALWVHCNQLSMQCVKDDELYEEVRLTLEGCDVEGDINGFIQSKSTGREPPAPVPYQNYYDREVTPLIGSPSIQPSCGVIKRFSGLLHGSPKTTPSAPAASTETLTPTPERNELVYASIEVQATQGNLNSSAQDYRALYDYTAQNSDELDISAGDILAVILEGEDGWWTVERNGQRGFVPGSYLEKL
modifications: Mus Musculus
B3: GST-PSTPIP (GST fusion of full-length PSTPIP, amino acids 2-415) (other)
chain: MAQLQFRDAFWCRDFTAHTGYEVLLQRLLDGRKMCKDVEELLRQRAQAEERYGKELVQIARKAGGQTEMNSLRTSFDSLKQQTENVGSAHIQLALALREELRSLEEFRERQKEQRKKYEAIMDRVQKSKLSLYKKTMESKKAYDQKCRDADDAEQAFERVSANGHQKQVEKSQNKAKQCKESATEAERVYRQNIEQLERARTEWEQEHRTTCEAFQLQEFDRLTILRNALWVHCNQLSMQCVKDDELYEEVRLTLEGCDVEGDINGFIQSKSTGREPPAPVPYQNYYDREVTPLIGSPSIQPSCGVIKRFSGLLHGSPKTTPSAPAASTETLTPTPERNELVYASIEVQATQGNLNSSAQDYRALYDYTAQNSDELDISAGDILAVILEGEDGWWTVERNGQRGFVPGSYLEKL
notes: Made in DH5-alpha bacteria from pGEX4T-2; also called GST-full-length PSTPIP; GST PTP PIP; not shown: glutathione S-transferase encoded by pGEX-4T-2 (Pharmacia)

Biological target: T1, PTP HSCF
Assay: In vitro GST pull-down binding of PST PIP forms to PTP HSCF
Method: The binding was carried out according to the method of Wong and Johnson (Wong et al., J. Biol. Chem. 271(35):20981-20984 (1996)). Briefly, 1 μg of plasmid with either the PSTPIP protein or PTP HSCF under the control of the Sp6 promoter was in vitro transcribed/translated using the Promega™ TnT Rabbit Reticulocyte™ system. Samples were diluted in 50 mM HEPES, pH 7.2, 1% triton X 100, 10% glycerol, 100 mM NaCl, 5 mM EDTA and 2 μg/ml each of leupeptin, pepstatin, aprotinin, and PMSF. […] This was reacted for 1 hour at 4° C. and then the resin washed 6 times in HEPES/Triton binding buffer before SDS gel electrophoresis. The peptides were synthesized on an automated Milligen 9050 Peptide Synthesizer using standard solid phase chemistry with FMOC protected amino acids on a p-alkoxybenzyl alcohol resin. Dried peptides were re-suspended in the HEPES/Triton Binding buffer at a concentration of 10 mg/ml. Peptide inhibition was performed by adding the peptide first to the in vitro translation product and then the GST-fusion followed by the GSH-Sepharose. The binding/washing steps were as previously described. The peptides synthesized and the PTPs they were derived from were: • PXXP-HSCF: 432[…]451 (PTP HSCF) (SEQ ID NO:20), • PXXP-PEP: 782GFGNRFSKPKGPRNPPSAW800 (PTP PEP) (SEQ ID NO:21), • PXXP-PEST: 761[…]780 (PTP PEST) SEQ ID NO:22), • PXXP-CONTROL: 334[…]353 (PTP HSCF) (SEQ ID NO:23).
In vitro binding analyses between various PTP HSCF and PST PIP constructs were performed as previously described (Spencer et al, (1997), supra). Briefly, plasmids were transcribed and translated in vitro using the TnT Rabbit Reticulocyte Lysate System (Promega). Samples were diluted in 50 mM HEPES, pH 7.2, 1% triton X-100, 10% glycerol, 100 mM NaCl, and 2 μg/ml each of leupeptin, pepstatin, aprotinin and PMSF (lysis buffer). Samples were than reacted with GST fusion proteins at various concentrations, and the bound proteins were centrifuged using glutathione-sepharose beads and analyzed on SDS polyacrylamide gels. C-terminally-derived peptide inhibition studies were performed by incubating the GST fusion protein binding reactions in the presence of 10 μg/ml of the indicated peptides. Peptides were produced by FMOC-protected amino acids as previously described (Spencer et al, (1997), supra). In vivo interactions between various forms of PTP HSCF and PST PIP were also performed as previously described (Spencer et al, (1997), supra). Briefly, COS cells were transfected with various constructs, and after 48 hours, lysates were prepared and immunoprecipitated with antibodies to either the FLAG epitope contained at the C-terminus of PST PIP or an HA epitope contained at the N-terminus of PTP HSCF. The resultant blots were probed with anti-FLAG to detect PST PIP, anti-HA to detect PTP HSCF or anti-phosphotyrosine to detect levels of this modified amino acid in each protein.

Molecule | binding of in vitro translated PST PIP forms to GST fusion of C-terminal 149 amino acids of PTP HSCF | precipitation of in vitro translated PTP HSCF by GST fusions of PSTPIP or its domains (~1 microgram per ml GST fusion protein)
B1 | complete loss of binding; also recorded: abolishes the interaction | –
B2 | capable of interacting | –
B3 | – | high degree of specificity
